In PMC7835385:
One block for each substance: values may come before it.

Legend:
[1] = target: myosin-7a heavy chain (Drosophila), FLAG-tagged, co-expressed with light chains (Drosophila) (UniProt Q9V3Z6); test: co-purification (FLAG affinity chromatography) with SDS-PAGE densitometry; heavy chain and light chains co-expressed in Sf9; heavy chain captured by its FLAG tag; 150 mM NaCl, 2 mM ATP washes
[2] = target: GFP-myosin-7a holoenzyme (full-length, Drosophila) (Drosophila) (UniProt Q9V3Z6); test: BLI; Octet RED96; GFP-myosin-7a held by biotinylated GFP antibody on streptavidin sensors; 0-25 nM M7BP in solution; 150 mM NaCl, 2 mM MgCl2, 0.1 mM EGTA, 10 mM MOPS, 1% BSA, pH 7.2; 30 C; no actin
[3] = target: skeletal muscle actin, filamentous (F-actin) (rabbit) (UniProt P68135)
[4] = target: full-length myosin-7a holoenzyme (Drosophila), FLAG-tagged (Drosophila) (UniProt Q9V3Z6); test: single-molecule mass photometry; 20 nM myosin-7a or M7BP alone, or 20 nM M7BP with 10 nM myosin-7a; 150 mM NaCl, 2 mM MgCl2, 0.1 mM EGTA, 10 mM MOPS, pH 7.2; about 24 C; no actin
[5] = target: GFP-myosin-7a holoenzyme (full-length, Drosophila) (Drosophila) (UniProt Q9V3Z6); test: single-molecule TIRF motility assay; 20 nM myosin-7a with 20 nM M7BP on surface-immobilised phalloidin-labelled actin filaments; 150 mM KCl, 20 mM MOPS, 5 mM MgCl2, 0.1 mM EGTA, 2 mM ATP, pH 7.4; co-movement and fluorophore counting of moving puncta

- stoichiometric ratio of strongly bound calmodulin to ELC/Mlc-c on the heavy chain [1]: 4
Substance: Drosophila calmodulin (from UniProt P62152 1-149) (natural protein)

- Kd [2]: 6 nM
- decrease in actin gliding velocity over surface-bound myosin-7a after infusion of 500 nM M7BP, 150 mM KCl [3]: 50%
- stoichiometry N [4]: 1
Substance: M7BP (myosin-7a binding protein), protein isoform C of CG43340, full length (natural protein)

- stoichiometry N [5]: 1
Substance: M7BP-mCherry (natural protein)
